Reference: patent publication US20220381770A1

Experiments:
[1] = molecular target: Survivin96-104/HLA-A2-Fc-STag; experiment: flow cytometry of pMHC-Fc-loaded α-Fc-based T-Plex beads stained with BB7.2
[2] = molecular target: HCMV pp65495-503/HLA-A2-Fc (Human cytomegalovirus); experiment: as above

αHLA-A2 mAb (Clone BB7.2/BioLegend) of IgG2b isotype (antibody)
fold MFI against pMHC-pCC-Fc-loaded SAv-based T-Plex beads [1]: 4 fold
fold MFI against pMHC-pCC-Fc-loaded SAv-based T-Plex beads [2]: 4 fold
